Data: patent publication USRE49583E1, “Inducible expression systems” (priority 2005, dated 2023)
“Also recorded” adds a separate entry of the source.

Tested on: chromosomally integrated CMV-7tetO luciferase reporter in HeLa X1/6 cells
Test: rtTA activity assay, HeLa X1/6 cells with integrated CMV-7tetO luciferase reporter (Example 1, FIG. 2-3, 5, 14, 15)
Type: cell-based
Conditions: for rtTA activation by minocycline (Mc): 0-10000 ng/ml Mc; for rtTA activation by tetracycline (Tc): 0-10000 ng/ml Tc; for basal / background activity in the absence of inducer: no dox or other effector
Source text: To test whether this rtTA optimization reflects a specific adaptation to the viral LTR-2ΔtetO promoter, we assayed rtTA activity with a reporter gene construct in which luciferase expression is under the control of a minimal CMV promoter coupled to an array of seven tetO elements. […] Thus, the observed mutations in rtTA are not virus-specific adaptations, but are general improvements of the Tet-on system. We also assayed rtTA activity in HeLa X1/6 cells that contain chromosomally integrated copies of the CMV-7tetO luciferase reporter construct (FIG. 2C). In these cells, the evolved rtTAs show a similar pattern of activity as with episomal reporter gene constructs in C33A cells. Thus, these mutations improve rtTA activity independent of the type of promoter and the episomal or chromosomal status of the target gene.
The V10 variant needs only 44 ng/ml dox to reach this activity level, which reflects a 23-fold higher dox-sensitivity than the wild-type rtTA.
rtTA activity assay. Two firefly luciferase reporter constructs with different promoter configurations were used. pLTR-2ΔtetO-luc contains the LTR-2ΔtetO promoter derived from the HIV-rtTA molecular clone (Marzio et al. 2001; Marzio et al. 2002). pCMV-7tetO-luc, previously named pUHC13-3 (Gossen et al. 1992), contains seven tetO elements located upstream of a minimal CMV promoter. The plasmid pRL-CMV (PROMEGA®, Madison, Wis., USA), in which the expression of Renilla luciferase is controlled by the CMV promoter, was used as an internal control to allow correction for differences in transfection efficiency.
C33A and HeLa X1/6 cells were grown in 2-cm^2 wells to 60% confluency and transfected by the calcium phosphate precipitation method (Das et al. 1999). C33A cells were transfected with 0.4 ng pCMV-rtTA (wild-type or mutant), 20 ng pLTR-2ΔtetO-luc or pCMV-7tetO-luc, 0.5 ng pRL-CMV, and 980 ng pBluescript as carrier DNA. HeLa X1/6 cells were transfected with 8 ng pCMV-rtTA, 2.5 ng pRL-CMV, and 990 ng pBluescript. The amount of the DNA constructs was optimized for each cell type to keep rtTA-mediated transactivation within the linear range and to avoid squelching of transcription factors. Cells were cultured for 48 hours in the presence of different concentrations of dox, Tc or Mc, and lysed in Passive Lysis Buffer (PROMEGA®). Firefly and Renilla luciferase activities were determined with the dual-luciferase reporter assay (PROMEGA®). The activity of the rtTA variants was calculated as the ratio of the firefly and Renilla luciferase activities, and corrected for between-session variation.
FIG. 2. Novel rtTA variants show increased activity and dox-sensitivity in different Tet systems. The transcriptional activity of rtTA variants was measured in C33A cells transfected with a plasmid carrying the firefly luciferase reporter gene under the control of the viral LTR-2ΔtetO promoter (LTR-2ΔtetO; A) or under the control of a minimal CMV-derived promoter coupled to seven tetO elements (CMV7-tetO; B). Furthermore, rtTA activity was measured in HeLa X1/6 cells (Baron et al. 1997) that contain a chromosomally integrated copy of the CMV-7tetO reporter construct (CMV7tetO-integrated; C, D). Variants V1 to V10 were compared in all three Tet systems (panels A-C) and variants V11 to V18 in the cells with the integrated reporter (panel D). Cells were transfected with the indicated rtTA expression plasmid or pBluescript as a negative control, and a plasmid constitutively expressing Renilla luciferase to correct for differences in transfection efficiency. Cells were cultured in the presence of different dox concentrations (0-1000 ng/ml). The ratio of the firefly and Renilla luciferase activities measured 2 days after transfection reflects the rtTA activity. All values were related to the wild-type (wt) rtTA activity at 1000 ng/ml dox, which was arbitrarily set at 100%. In (C and D), average values of three transfections are shown with error bars indicating the standard deviation.
FIG. 3. […]

[1] = listed as C68R V9I G138D F86Y A209T
[2] = listed as S12G F67S V9I G138D F86Y A209T

B1: V9I C68R G138D F86Y A209T: rtTA variant with these amino acid substitutions (protein)
chain: MSRLDKSKIINSALELLNGVGIEGLTTRKLAQKLGVEQPTLYWHVKNKRALLDALPIEMLDRHHTHFRPLEGESWQDFLRNNAKSYRCALLSHRDGAKVHLGTRPTEKQYETLENQLAFLCQQGFSLENALYALSAVDHFTLGCVLEEQEHQVAKEERETPTTDSMPPLLRQAIELFDRQGAEPAFLFGLELIICGLEKQLKCESGGPTDALDDFDLDMLPADALDDFDLDMLPADALDDFDLDMLPG
- rtTA activation by minocycline (Mc) [1]: particularly sensitive for minocycline; also recorded: very sensitive for minocycline
- rtTA activation by tetracycline (Tc) [1]: particularly sensitive for tetracycline; also recorded: very sensitive for tetracycline
- basal / background activity in the absence of inducer: no or low basal activity
- basal / background activity in the absence of inducer [1]: low background activity

B2: V9I S12G F67S G138D F86Y: rtTA variant with these amino acid substitutions (protein)
chain: MSRLDKSKIINGALELLNGVGIEGLTTRKLAQKLGVEQPTLYWHVKNKRALLDALPIEMLDRHHTHSCPLEGESWQDFLRNNAKSYRCALLSHRDGAKVHLGTRPTEKQYETLENQLAFLCQQGFSLENALYALSAVDHFTLGCVLEEQEHQVAKEERETPTTDSMPPLLRQAIELFDRQGAEPAFLFGLELIICGLEKQLKCESGGPADALDDFDLDMLPADALDDFDLDMLPADALDDFDLDMLPG
- basal / background activity in the absence of inducer: no or low basal activity

B3: V9I S12G F67S G138D F86Y A209T: rtTA variant with these amino acid substitutions (protein)
chain: MSRLDKSKIINGALELLNGVGIEGLTTRKLAQKLGVEQPTLYWHVKNKRALLDALPIEMLDRHHTHSCPLEGESWQDFLRNNAKSYRCALLSHRDGAKVHLGTRPTEKQYETLENQLAFLCQQGFSLENALYALSAVDHFTLGCVLEEQEHQVAKEERETPTTDSMPPLLRQAIELFDRQGAEPAFLFGLELIICGLEKQLKCESGGPTDALDDFDLDMLPADALDDFDLDMLPADALDDFDLDMLPG
- rtTA activation by minocycline (Mc) [2]: particularly sensitive for minocycline; also recorded: very sensitive for minocycline
- rtTA activation by tetracycline (Tc) (listed as 512G F67S V9I G138D F86Y A209T): particularly sensitive for tetracycline
- rtTA activation by tetracycline (Tc) [2]: very sensitive for tetracycline
- basal / background activity in the absence of inducer: no or low basal activity
- basal / background activity in the absence of inducer [2]: low background activity

B4: V9I G19M F67S G138D F86Y: rtTA variant with these amino acid substitutions (protein)
chain: MSRLDKSKIINSALELLNMVGIEGLTTRKLAQKLGVEQPTLYWHVKNKRALLDALPIEMLDRHHTHSCPLEGESWQDFLRNNAKSYRCALLSHRDGAKVHLGTRPTEKQYETLENQLAFLCQQGFSLENALYALSAVDHFTLGCVLEEQEHQVAKEERETPTTDSMPPLLRQAIELFDRQGAEPAFLFGLELIICGLEKQLKCESGGPADALDDFDLDMLPADALDDFDLDMLPADALDDFDLDMLPG
- basal / background activity in the absence of inducer: no or low basal activity

B5: V9I G19M F67S G138D F86Y A209T: rtTA variant with these amino acid substitutions (protein)
chain: MSRLDKSKIINSALELLNMVGIEGLTTRKLAQKLGVEQPTLYWHVKNKRALLDALPIEMLDRHHTHSCPLEGESWQDFLRNNAKSYRCALLSHRDGAKVHLGTRPTEKQYETLENQLAFLCQQGFSLENALYALSAVDHFTLGCVLEEQEHQVAKEERETPTTDSMPPLLRQAIELFDRQGAEPAFLFGLELIICGLEKQLKCESGGPTDALDDFDLDMLPADALDDFDLDMLPADALDDFDLDMLPG
- rtTA activation by minocycline (Mc): particularly sensitive for minocycline
- rtTA activation by tetracycline (Tc): particularly sensitive for tetracycline
- basal / background activity in the absence of inducer: no or low basal activity

B6: V9I E37Q G138D F86Y A209T: rtTA variant with these amino acid substitutions (protein)
chain: MSRLDKSKIINSALELLNGVGIEGLTTRKLAQKLGVQQPTLYWHVKNKRALLDALPIEMLDRHHTHFCPLEGESWQDFLRNNAKSYRCALLSHRDGAKVHLGTRPTEKQYETLENQLAFLCQQGFSLENALYALSAVDHFTLGCVLEEQEHQVAKEERETPTTDSMPPLLRQAIELFDRQGAEPAFLFGLELIICGLEKQLKCESGGPTDALDDFDLDMLPADALDDFDLDMLPADALDDFDLDMLPG
- rtTA activation by minocycline (Mc): particularly sensitive for minocycline
- rtTA activation by tetracycline (Tc): particularly sensitive for tetracycline
- basal / background activity in the absence of inducer: no or low basal activity

B7: V9I G19M G138D F86Y A209T: rtTA variant with these amino acid substitutions (protein)
chain: MSRLDKSKIINSALELLNMVGIEGLTTRKLAQKLGVEQPTLYWHVKNKRALLDALPIEMLDRHHTHFCPLEGESWQDFLRNNAKSYRCALLSHRDGAKVHLGTRPTEKQYETLENQLAFLCQQGFSLENALYALSAVDHFTLGCVLEEQEHQVAKEERETPTTDSMPPLLRQAIELFDRQGAEPAFLFGLELIICGLEKQLKCESGGPTDALDDFDLDMLPADALDDFDLDMLPADALDDFDLDMLPG
- rtTA activation by minocycline (Mc): particularly sensitive for minocycline
- rtTA activation by tetracycline (Tc): particularly sensitive for tetracycline
- basal / background activity in the absence of inducer: no or low basal activity

B8: V9I G19M G138D F86Y: rtTA variant with these amino acid substitutions (protein)
chain: MSRLDKSKIINSALELLNMVGIEGLTTRKLAQKLGVEQPTLYWHVKNKRALLDALPIEMLDRHHTHFCPLEGESWQDFLRNNAKSYRCALLSHRDGAKVHLGTRPTEKQYETLENQLAFLCQQGFSLENALYALSAVDHFTLGCVLEEQEHQVAKEERETPTTDSMPPLLRQAIELFDRQGAEPAFLFGLELIICGLEKQLKCESGGPADALDDFDLDMLPADALDDFDLDMLPADALDDFDLDMLPG
- basal / background activity in the absence of inducer: no or low basal activity

B9: V9I E37Q G138D F86Y: rtTA variant with these amino acid substitutions (protein)
chain: MSRLDKSKIINSALELLNGVGIEGLTTRKLAQKLGVQQPTLYWHVKNKRALLDALPIEMLDRHHTHFCPLEGESWQDFLRNNAKSYRCALLSHRDGAKVHLGTRPTEKQYETLENQLAFLCQQGFSLENALYALSAVDHFTLGCVLEEQEHQVAKEERETPTTDSMPPLLRQAIELFDRQGAEPAFLFGLELIICGLEKQLKCESGGPADALDDFDLDMLPADALDDFDLDMLPADALDDFDLDMLPG
- basal / background activity in the absence of inducer: no or low basal activity
